The test system of data set [1] is Saccharomyces cerevisiae. Kind of data set: protein stability index of tFT-peptide fusion (C-terminal peptide) (PSI (0-1 scale)); higher = more stable (slower turnover). As to the method:
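MPS profiling in S. cerevisiae of the tFT-X12 degron library: putative degron peptides plus stable controls, 12 aa, fused to the C-terminus of a sfGFP-mCherry timer. Cells are FACS-sorted into 8 mCherry/sfGFP bins and deep-sequenced. PSI runs from 0 (unstable) to 1 (stable). Backgrounds are wild type, das1Δ and doa10Δ at 30 °C, and wild type, das1Δ, cdc34-1 and cdc53-1 at 37 °C; 2-3 technical replicates each.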

For data set [2], the system named is Saccharomyces cerevisiae. The description is as above. Conditions: genetic background: wild type; temperature: 30 C.
Where [3] appears, read: genetic background: cdc34-1, temperature: 37 C.
[4] abbreviates: genetic background: cdc53-1, temperature: 37 C.
Where [5] appears, read: genetic background: das1 deletion, temperature: 30 C.
Where [6] appears, read: genetic background: das1 deletion, temperature: 37 C.
Setting [7] is: genetic background: doa10 deletion, temperature: 30 C.
[8] abbreviates: genetic background: wild type, temperature: 30 C.
The mark [9] stands for this setting: genetic background: wild type, temperature: 37 C.

Experimental findings from the supplement of paper PMC10724198 are described below.

± gives the standard deviation of the averaged measurements.
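Note: PSI is a weighted mean of sequencing reads over stability bins, variants kept only with over 10 reads, mCherry proximal and sfGFP distal, peptide attached via GGGS linker.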

With SAWGQAFWCQMG, the protein stability index in data set [1] (setting [3]) is 0.712 ± 0.027; in data set [1] (setting [4]), 0.7859 ± 0.0057; in data set [1] (setting [5]), 0.648 ± 0.019; in data set [1] (setting [6]) it was 0.764 ± 0.016; in data set [1] (setting [7]), 0.233 ± 0.016; in data set [1] (setting [8]) it was 0.265 ± 0.014. Also, the protein stability index in data set [1] (setting [9]) was 0.555 ± 0.025; in data set [2] it was 0.4071 ± 0.00098.

In the case of SCCGCGFGLLFC, the protein stability index in data set [1] (setting [3]) was found to be 0.731 ± 0.011; in data set [1] (setting [4]) it was 0.807 ± 0.0017; in data set [1] (setting [5]) it was 0.631 ± 0.023; in data set [1] (setting [6]) it was 0.7812 ± 0.0002; in data set [1] (setting [7]), 0.643 ± 0.032; in data set [1] (setting [8]), 0.632 ± 0.016. Besides, the protein stability index in data set [1] (setting [9]) stood at 0.7399 ± 0.0056; in data set [2] it was 0.73 ± 0.018.

On to SCCIYVALCRWL, for which the protein stability index in data set [1] (setting [3]) stood at 0.473 ± 0.024; in data set [1] (setting [4]) it was 0.573 ± 0.0093; in data set [1] (setting [5]), 0.43 ± 0.024; in data set [1] (setting [6]), 0.5601 ± 0.0013; in data set [1] (setting [7]), 0.323 ± 0.0071; in data set [1] (setting [8]) it was 0.353 ± 0.035. Further, the protein stability index in data set [1] (setting [9]) is 0.48 ± 0.0084; in data set [2], 0.382 ± 0.016.

Turning to SCGVYVVFVLVE, the protein stability index came out at 0.0658 ± 0.027 in data set [1] (setting [3]); 0.133 ± 0.047 in data set [1] (setting [4]); 0.16 ± 0.042 in data set [1] (setting [5]); 0.294 ± 0.006 in data set [1] (setting [6]); 0.128 ± 0.026 in data set [1] (setting [7]); 0.152 ± 0.022 in data set [1] (setting [8]). Further, the values for the protein stability index in data set [1] (setting [9]) and in data set [2] were 0.246 ± 0.0014 and 0.286 ± 0.16, respectively.

Regarding SCIVRTLVPCPS, the protein stability index was 0.377 ± 0.0049 in data set [1] (setting [3]); 0.419 ± 0.034 in data set [1] (setting [4]); 0.253 ± 0.04 in data set [1] (setting [5]); 0.4761 ± 0.0022 in data set [1] (setting [6]); 0.224 ± 0.016 in data set [1] (setting [7]); 0.27 ± 0.029 in data set [1] (setting [8]). In addition, the protein stability index in data set [1] (setting [9]) worked out at 0.445 ± 0.0094; in data set [2], 0.373 ± 0.022.

On to SFCVLLQFCVLV, for which the protein stability index in data set [1] (setting [3]) was 0.412 ± 0.0095; in data set [1] (setting [4]) it was 0.432 ± 0.0084; in data set [1] (setting [5]), 0.351 ± 0.021; in data set [1] (setting [6]) it was 0.461 ± 0.011; in data set [1] (setting [7]), 0.336 ± 0.0041; in data set [1] (setting [8]), 0.3381 ± 0.0012. Also, the protein stability index was 0.4258 ± 0.0029 in data set [1] (setting [9]) and 0.0186 ± 0.026 in data set [2].

In the case of SFFCTRVLWVFQ, the protein stability index in data set [1] (setting [3]) is 0.534 ± 0.017; in data set [1] (setting [4]), 0.612 ± 0.025; in data set [1] (setting [5]), 0.539 ± 0.022; in data set [1] (setting [6]), 0.6285 ± 0.0029; in data set [1] (setting [7]), 0.0925 ± 0.004; in data set [1] (setting [8]) it was 0.0846 ± 0.027. The results for the protein stability index in data set [1] (setting [9]) and in data set [2] were 0.149 ± 0.029 and 0.157 ± 0.023, respectively.

For SFHTFFCPFFIL, the protein stability index in data set [1] (setting [3]) is 0.53 ± 0.051; in data set [1] (setting [4]) it was 0.6678 ± 0.0037; in data set [1] (setting [5]) it was 0.645 ± 0.038; in data set [1] (setting [6]), 0.713 ± 0.032; in data set [1] (setting [7]) it was 0.189 ± 0.0043; in data set [1] (setting [8]), 0.168 ± 0.023. In addition, the figures for the protein stability index in data set [1] (setting [9]) and in data set [2] were 0.288 ± 0.022 and 0.205 ± 0.024, respectively.

With SGPNASRFYAPI, the protein stability index was determined as 0.672 ± 0.04 in data set [1] (setting [3]); 0.733 ± 0.0081 in data set [1] (setting [4]); 0.634 ± 0.013 in data set [1] (setting [5]); 0.72486 ± 8.5e-06 in data set [1] (setting [6]); 0.657 ± 0.034 in data set [1] (setting [7]); 0.656 ± 0.037 in data set [1] (setting [8]). The protein stability index in data set [1] (setting [9]) is 0.704 ± 0.011; in data set [2] it was 0.696 ± 0.041.

As for SHPFIRSLVFLA, the protein stability index in data set [1] (setting [3]) turned out to be 0.43 ± 0.015; in data set [1] (setting [4]), 0.6729 ± 0.0026; in data set [1] (setting [5]), 0.629 ± 0.008; in data set [1] (setting [6]), 0.721 ± 0.02; in data set [1] (setting [7]) it was 0.0816 ± 0.008; in data set [1] (setting [8]), 0.0711 ± 0.0057. For the same sequence, the protein stability index in data set [1] (setting [9]) was found to be 0.0908 ± 0.014; in data set [2] it was 0.103 ± 0.037.

Turning to SHWSMQATLQLV, the protein stability index in data set [1] (setting [3]) amounted to 0.617 ± 0.046; in data set [1] (setting [4]), 0.694 ± 0.025; in data set [1] (setting [5]) it was 0.568 ± 0.021; in data set [1] (setting [6]) it was 0.6866 ± 0.0046; in data set [1] (setting [7]), 0.443 ± 0.034; in data set [1] (setting [8]), 0.468 ± 0.011. The protein stability index came out at 0.601 ± 0.012 in data set [1] (setting [9]) and 0.469 ± 0.016 in data set [2].

For SIFFLVPLVFLS, the protein stability index in data set [1] (setting [3]) was 0.4422 ± 0.0014; in data set [1] (setting [4]) it was 0.532 ± 0.027; in data set [1] (setting [5]) it was 0.408 ± 0.035; in data set [1] (setting [6]), 0.584 ± 0.015; in data set [1] (setting [7]), 0.134 ± 0.0055; in data set [1] (setting [8]) it was 0.141 ± 0.019. Also, the protein stability index was determined as 0.216 ± 0.055 in data set [1] (setting [9]) and 0.214 ± 0.043 in data set [2].

As to SIPVWTIELFAT, the protein stability index in data set [1] (setting [3]) was 0.555 ± 0.022; in data set [1] (setting [4]) it was 0.627 ± 0.012; in data set [1] (setting [5]) it was 0.428 ± 0.026; in data set [1] (setting [6]), 0.6153 ± 0.0042; in data set [1] (setting [7]), 0.335 ± 0.022; in data set [1] (setting [8]), 0.368 ± 0.035. Besides, the protein stability index in data set [1] (setting [9]) is 0.537 ± 0.039; in data set [2], 0.469 ± 0.037.

Consider SLEACYCFVVLV, for which the protein stability index in data set [1] (setting [3]) worked out at 0.187 ± 0.0034; in data set [1] (setting [4]), 0.199 ± 0.0087; in data set [1] (setting [5]) it was 0.214 ± 0.028; in data set [1] (setting [6]), 0.291 ± 0.0068; in data set [1] (setting [7]) it was 0.175 ± 0.019; in data set [1] (setting [8]) it was 0.186 ± 0.023. Further, the protein stability index in data set [1] (setting [9]) is 0.25 ± 0.015; in data set [2] it was 0.2744 ± 0.00036.

As to SLFDQDCGGTVW, the protein stability index in data set [1] (setting [3]) turned out to be 0.756 ± 0.034; in data set [1] (setting [4]) it was 0.78 ± 0.013; in data set [1] (setting [5]) it was 0.686 ± 0.016; in data set [1] (setting [6]) it was 0.784 ± 0.014; in data set [1] (setting [7]), 0.655 ± 0.014; in data set [1] (setting [8]), 0.6706 ± 0.0058. Besides, the figures for the protein stability index in data set [1] (setting [9]) and in data set [2] were 0.804 ± 0.016 and 0.764 ± 0.027, respectively.
